Laboratory results published in patent publication US20150351390A1, “COMPOSITIONS AND METHODS FOR AUXIN-ANALOG CONJUGATION” (PIONEER HI-BRED INTERNATIONAL, INC., priority 2012, published 2015).

B1: MtGH3: GH3 protein, accession ABN09059 (protein, listed as Medicago truncatula)
chain: MPTSLDYDLSQKNKKTLDFIEDITTHADEIQKKVLAEILNRNANVEYLQRHGLNGHTDSETFKKLLPIITYEDIQNDINLIANGDTSPILTSNPISNFLTSSGTSGGERKLMPATEEEFGRRYLLYSYLMPIMSQFIPDLEKGKGMYLMFIKNESKTPGGIKASPVLTNYYKSSHFLNRPYDPYTNFTSPNETVLCLDSYQSMYSQLLCGLIQNNEVLRVGAVFASGLIRAIRFLEKNWRLLCNDIRTGTLDLLITDDSVREAVMKILKPNKNLADFVEGECNKGSWQGIITRLWPNTKYVDVIVTGTMSQYIPTLDYYSNGLPLVCTMYASSECYFGVNLNPLSKPCHVSYTLIPTMCYYEFLPVNRSNCEVNGSIPPSTTKSLGEKKYQEVVDLVDVKLGQEYELVVTTYAGLYRYKVGDVLKVTGFKNKAPQFSFVCRKNVVLSIESDKTDEVELQNAMKNAVTHLAPFEADVAEYTSYADTTTIPGHYVLYWELNLKGSTKIPHSVYEDCCLTIEESLNSVYRQGRVSDKSIGPLEIKIVEQGTFDKLMDYAINLGASINQYKTPRCVKFAPMVELLESRVMAKYFSPKCPKWVPGHKKWNNE
B2: PtGH3-1: GH3 protein, accession EEE70316 (protein, listed as Populus trichocarpa)
chain: MAIESVLSPLGPPACEKDAKALQFIEDMTANVDLVQERVLKEILTSNAETEYLQKYHLNGATDRDSFKSKIPMVTYEDLQPQIQRIANGDKSPILSSHPISEFLTSSGTSAGERKLMPTIEEEMDRRQLLYSLLMPVMNLYVPGLDKGKGLYFYFIKAEAKTPGGLVARPVLTSYYKSKQFKTRPYDPYNVITSPNETILCVDSFQSMYSQMLCGLIMREEVLRVGAVFASGLLRAIRFLQLNWKELANDISTGSLNPKVTNPSIRECMAKILKPNQELAEFITKECSDENWERIITRIWPNTKYLDVIVTGAMAQYIPTLDYYSGGLPKPCTMYASSECFFGLNLRPMSEPSEVSYTIMPNMGYFEFLPHDPSAPAFSRESPPRLLDLADLEVGKEYELVITTYSGLNRYRVGDILLVTGFYNKAPQFRFVRRKNVLLSIESDKTDEAELQKAIDNASLLLREFNTSVVEYTSYAETKIIPGHYVIYWELLVKDPANSPTEEVLNQCCLAMEESLNSVYRQSRVADNSIGPLEIRVVKNGTFEELMDYAISRGASINQYKVPRCVSFTPIMELLDSRVVSKHFSPSVPHWTPERRS
B3: PtGH3-3: GH3 protein, accession EEE85053 (protein, listed as Populus trichocarpa)
chain: MAVDNALSSPLGPPACEKDAKALQFIEEMTRKTDSVQEDVLAKILIQNAEVEYLKRFNLDGATDRETFKSKLPTIRYEDLQPEIQRIANGDRSSILSTHPISEFLTSSGTSAGERKLMPTIKQELDRRQLLYSLLMPVMNLYVPGLDKGKGLYFLFVKSETRTPGGLLARPVLTSYYKSDHFKTRPYDPYNVYTSPNEAILCADSFQSMYTQMLCGLLEREQVLRVGAVFASGLLRAIRFLQLHWRELADDIESGMLNKEITDPSVKDCMVKILKPNPKLAEFVRMECSKENWEGIITRIWPNTKYLDVIVTGAMAQYIPTLDYYSGGLPLACTMYASSECYFGLNLNPMCKPSEVCYTIMPNMAYFEFLPHDPNGFTHDSTPKLVDLADVELGKEYELVITTYAGLYRYQVGDILRVTGFHNSAPQFHFVRRKNVLLSIDSDKTDEAELQKAVENASQLLREFNTSVVEYTSYADTKTIPGHYVIYWELLVKDLANSPSDEVLNQCCLAMEECLNSVYRQGRVADYSIGPLEIRVVKNGTFEELMDYAISRGASINQYKVPRCVNFTPIMELLDSRVVSKHFSPALPYWTPERRR
B4: PiGH3-16: GH3 protein, accession CAJ14972 (protein)
chain: MPQAKREEGIESVQESIIIATTERNRKALDFIEHATIHAAEVQAEVLLEILTRNAYTEYLERYQLTGRTDRKSFKERLPVITYEDLQPEILRIANGDMSPILSAHPISEFLTSSGTSAGERKIMPTIHEELKRRTLLYSLLMPVMNQYMKGLDKGKGMYFLFVKSETRTPGGLLARPVLTSYYKSQDFIERPYDPYNVYTSPMEAILCSDSYQSMYCQLLCGLAQNHEVLRVGAVFASGLLRAIRFLEEHWQSLCQDIRSGTVNDEEVTDPCLRESVMKILHPNTQLADLIRTECSKESWQGIITRLWPNARYLDVIVTGAMAQYIKTLDFYSGGLPQVCTMYASSECYFGINLKPLCQPWEVSYTLMPNMAFFEFLPVYRNKNEDAGPVTTATEQPAELVDLVDVKVGQEYELVITTYSGLYRYRVGDVLRVTGFHNAAPQFQFVCRKNVMLSIDADKTDEAELHNAVMNAVKHLEPLEATLVEYTSYTDTSTIPGHYVLYWELRTSALPVPPSVFEDCCLTVEESLNSVYRQCRVADKSIGPLEIKVVEMGTFDKLMDYAISRGSSINQYKAARCVKFAPMVDILNSRVSASYFSPRCPKWTAGRTQWGALPR
modifications: Pinus pinaster
B5: NtGH3: GH3 protein, accession AAD32141 (protein, listed as Nicotiana tabacum)
chain: MAVDSVLSSPLGPPACEKDAKALQFIEEMTRNADAVQERVLNEILTRNSQTEYLKRFKLDGVSDRETFKNKIPVVTYEDLQPEIQRIANGDRSPILSAHPISEFLTSSGTSAGERKLMPTIKEELDRRQLLYSLLMPVMNLYVPGLDKGKGLYFLFIKSETKTPGGLLARPVLTSYYKSEHFKRRPHDPYNVYTSPNEAILCADSFQSMYTQMLCGLYEREQVLRLGAVFASGLVRAIRFLQLHWPQLAHDIRTGTLNPEITDPSICERMGLVMRPNPKLADFVTDECSKENWEGIITRIWPKTKYLDVIVTGAMAQYIPTLDYYSGGLPKACTMYAASECYFGLNLNPMCKPSEVSYTIMPNMGYFEFLPHDPNSSRDSTRNLVDLVDVEVGKEYELVITTYAGLYRYRVGDILRVTGFHNSAPQFHFVRRKNVLLSIDSDKTDEAELQRAVENASKLLKEFNTSVVEYTSYADTKTIPGHYVIYWELLMKDLNNSPSDEVLNKCCLAMEESLNTVYRQGRVACNSIGPLEIRVVKNGTFEELMDYAISRGASINQYKVPRCVSFAPILELLDSRVMSRHFSPSLPQWTPERRH
B6: PtGH3-2: GH3 protein, accession EEE87842 (protein, listed as Populus trichocarpa)
chain: MAVDNALSSPLGPPACEKDAKALQFLEEMTRNADSVQEDVLAKILTQNSEVEYLKRFNLDGAIDRETFKSKIPMIRYEDLQPEIQRIANGDRSSILSAHPISEFLTSSGTSAGERKLMPTIKQELDRRQLLYSLLMPVMNLYVPGLDKGKGLYFLFVKSETRTPGGLLARPVLTSYYKSDHFKTRPYDPYNVYTSPNEAILCADSFQSMYTQMLCGLLEREQVLRVGAVFASGLLRAIRFLQLHWRELSDDIESGMLNKKITDPTVKDCMVNILKPNPKLAEFVRMECGKENWEGIITRIWPNTKYLDVIVTGAMAQYIPTLDYYSGGLPKACTMYASSECYFGLNLNPMCKPSEVCYTIMPNMAYFEFLPHEPAGISQDSTPKLVDLADVELGKEYELVITTYAGLYRYRVGDILRVTGFHNSAPQFHFVRRKNVLLSIDSDKTDEAELQTAVENASQLLREFNTSVVEYTSHADTKTIPGHYVIYWELLVKDSANSPGDEVLNQCCLAMEESLNSVYRQGRVADNSIGPLEIRVVKNGTFEELMDYAISRGASINQYKVPRCVNFTPIMELLDSRVVSKHFSPALPRWAPERRR

How the values were obtained:
[1] = LC-MS assay of GH3 conjugation of 2,4-D with Asp or Glu; assay type: biochemical; conditions: 5 mM 2,4-D substrate; for kcat (hrs−1) 2,4-D-Asp: conjugation of 2,4-D with Asp by recombinant GH3 protein, 2,4-D-Asp product by LC-MS; for kcat (hrs−1) 2,4-D-Glu: conjugation of 2,4-D with Glu by recombinant GH3 protein, 2,4-D-Glu product by LC-MS
Summary of the method: (§1)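 N-terminal His-tagged GH3 homologs, expressed in E. coli C41(DE3) and Ni-NTA purified, at 44 to 164 μg/mL incubated 3 h at 30 °C in 20 mM Tris-HCl pH 8.0, 5 mM MgCl2, 1 mM DTT, 5 mM ATP, 5 mM auxin (IAA, 2,4-D or dicamba) and 5 mM Asp or Glu. Conjugates quantified by LC-MS against standards after MeOH precipitation; kinetics from Michaelis-Menten fits of initial velocities.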

[2] = LC-MS assay of GH3 conjugation of IAA with Asp or Glu; assay type: biochemical; conditions: for kcat (hrs−1) IAA-Asp: conjugation of IAA with Asp by recombinant GH3 protein, IAA-Asp product by LC-MS; for kcat (hrs−1) IAA-Glu: conjugation of IAA with Glu by recombinant GH3 protein, IAA-Glu product by LC-MS
Summary of the method: as §1

Molecule | kcat (hrs−1) 2,4-D-Asp [1] [h⁻¹] | kcat (hrs−1) 2,4-D-Glu [1] [h⁻¹] | kcat (hrs−1) IAA-Asp [2] [h⁻¹] | kcat (hrs−1) IAA-Glu [2] [h⁻¹]
B1 | 1.494 | 0.122 | 337.033 | 11.549
B2 | 4.798 | 0.181 | 900.907 | 39.695
B3 | 2.033 | 0.845 | 806.314 | 44.225
B4 | 0.379 | 0.089 | 656.761 | 51.037
B5 | 1.990 | 0.804 | 716.658 | 34.341
B6 | 0.934 | 0.203 | 679.646 | 53.401
